Assay results published in patent US20120021993A1 (AJOU UNIVERSITY INDUSTRY ACADEMIC COOPERATION FOUNDATION, published 2012).
Like-named read-outs stand apart in the source and are kept apart here.

T1: DcR1 (UniProt O14798 26-221, limits assumed)
T1 sequence (looked up): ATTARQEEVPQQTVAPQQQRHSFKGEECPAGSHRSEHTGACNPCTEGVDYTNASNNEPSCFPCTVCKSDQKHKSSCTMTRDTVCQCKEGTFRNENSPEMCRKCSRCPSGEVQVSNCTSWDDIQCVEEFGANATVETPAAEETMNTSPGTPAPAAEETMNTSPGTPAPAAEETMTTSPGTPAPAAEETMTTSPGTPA

T2: DcR2 (UniProt Q9UBN6 56-211, limits assumed)
T2 sequence (looked up): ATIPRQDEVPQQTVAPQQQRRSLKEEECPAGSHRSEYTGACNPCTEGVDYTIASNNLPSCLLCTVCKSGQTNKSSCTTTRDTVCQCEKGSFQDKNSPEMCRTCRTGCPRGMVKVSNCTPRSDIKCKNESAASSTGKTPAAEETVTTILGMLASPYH


Columns and labels:
[1] = target: T3, TNFα, extracellular domain (amino acid residue 1-157), 6xHis tag (human, UniProt P01375 57-233); experiment: ELISA, homo-dimer against monomer
T3 construct: extracellular domain; Expressed in E. coli; The printed residues 1-157 seem to count on the soluble form, not on the precursor; the same molecule is used for it here; also called human TNFα; tumor necrosis factor alpha

[2] = target: T3, TNFα, extracellular domain (amino acid …); experiment: ELISA, target coated on the plate
[3] = target: T3, TNFα, extracellular domain (amino acid …); experiment: ELISA, coated target, A405
Protocol: In order to measure the affinity and cross reactivity of the anti-DR4, -DR5 and -TNFα protein scaffold variants based on the Kringle domain structure to the target molecules, an enzyme-linked immunosorbent assay (ELISA) was performed. The target molecules DR4, DR5, TNFα and DcR1, DcR2 were attached to a 96 well EIA/RIA plate (COSTARCorning In., USA) by its reaction at 37° C. for 1 hour, and washed three times with 0.1% PBST (0.1% Tween20, pH 7.4, 137 mM NaCl, 10 mM Phosphate, 2.7 mM KCl, SIGMA-ALDRICH Co., USA) for 10 minutes. The target molecules were attached for 1 hour to a 96 well EIA/RIA plate in 1% PBSB (1% BSA, pH 7.4, 137 mM NaCl, 10 mM Phosphate, 2.7 mM KCl, SIGMA-ALDRICH Co., USA), and then washed three times with 0.1% PBST (0.1% Tween 20, pH 7.4, 137 mM NaCl, 10 mM Phosphate, 2.7 mM KCl, SIGMA-ALDRICH Co., USA) for 10 minutes. Then, the anti-DR4, -DR5 and -TNFα Kringle domain variants were bound, and washed three times with 0.1% PBST for 10 minutes. The anti-DR4, -DR5 and -TNFα Kringle domain variants were primarily bound to mouse-derived anti-c-myc 9e10 mAb (Ig Therapy, Korea), and secondarily bound to alkaline phosphatase (AP)-conjugated anti-mouse mAb (Sigma). Each of the Kringle domain variants was reacted with […] (pNPP, Sigma-aldrich Co., USA) and quantified at an absorbance of 405 nm.

[4] = target: T3, TNFα, extracellular domain (amino acid …); experiment: cell-based or functional assay
DcR1 = target: T1, DcR1; experiment: yeast display, flow cytometry MFI
DcR2 = target: T2, DcR2; experiment: yeast display, flow cytometry MFI
[5] = target: T3, TNFα, extracellular domain (amino acid …); experiment: ELISA, coated target, A405; remark: listed apart in the source

T3 sequence (P01375 other isoform, or with tags, fused parts or gaps limits assumed): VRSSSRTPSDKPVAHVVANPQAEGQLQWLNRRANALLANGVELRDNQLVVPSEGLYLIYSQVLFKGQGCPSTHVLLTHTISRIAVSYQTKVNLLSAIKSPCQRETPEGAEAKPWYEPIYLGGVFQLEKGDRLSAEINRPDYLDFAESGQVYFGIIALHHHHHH

Row | fold increase of affinity against the monomer [1] | affinity value [2] | binding result (DcR1) | binding result (DcR2) | Binder | EC50 (read off the curve) [3] | IC50 (50% inhibiting concentration) of TNFα-mediated cell death, WEHI 164, MTT assay [4] | EC50 (read off the curve) [5]
1 | ~10 fold | 8 nM |  |  | anti-TNFα KDT26 homo-dimer (designed binder) CPRDQGNQYDGFRYGTYRGHRCQHWTRDEPHFHGFGHQHKYTYRHKKNYCRNPDARPRPWCFTHRYQNRNELCHQPRCGGGGSGGGGSGGGGSGGGGSCPRDQGNQYDGFRYGTYRGHRCQHWTRDEPHFHGFGHQHKYTYRHKKNYCRNPDARPRPWCFTHRYQNRNELCHQPRC |  |  | 
2 |  |  | no binding | no binding | KDT26 (designed binder, Soluble monomer from Pichia pastoris; also called KRT26; anti-TNFα Kringle domain variant KDT26; not shown: C-terminal myc tag-6xHis tag of pPICZaA) CPRDQGNQYDGFRYGTYRGHRCQHWTRDEPHFHGFGHQHKYTYRHKKNYCRNPDARPRPWCFTHRYQNRNELCHQPRC | ~80 nM | 780 nM | ~80 nM
